Numbering of substitutions follows the chain as printed. Names and notes keep the numbering of the source.
Legend:
[1] = target: T1, human CD22 (hCD22) expressed on the cell surface (human, UniProt P20273 20-847); test: BHK-CD22 cell ELISA
T1 construct: whole, on cells; Used as capture agent in the BHK-CD22 cell ELISA and as target in flow cytometry; also called BHK-CD22; hCD22 expressing CHO cells

[2] = target: hCD22 immobilised on a CM5 sensor chip (BIAcore ligand) (human, UniProt P20273 20-687, limits assumed); test: BIAcore 3000 SPR; hCD22 amine-coupled to CM5 chip, IgG injected; global 1:1 fit
Method: Binding affinity of HB22.7 and RHOv2ACD/RKA were determined on a BIAcore 3000 instrument (BIAcore, Inc., Uppsala, Sweden). The ligand, hCD22, was prepared at 50 nM in 10 mM NaOAc, pH4 buffer. It was injected onto an EDC/NHS-activated CM5 sensor chip (BIAcore, Inc. Uppsala, Sweden) using a standard immobilization protocol. Following this, any unreacted active ester moieties were quenched using 1M Et-NH2 (ethanolamine; coupling reagents purchased from BIAcore, Inc.). A total of 535 and 689 RUs hCD22 remained bound to two sensor chip surfaces used in these experiments. Separately, a blank surface was prepared on each sensor chip using the identical protocol (minus protein). The blank surfaces were used as a reference cell in the experiments, and served to correct for both non-specific binding and some housekeeping artifacts.
For the kinetic experiments, HB22.7 and RHOv2ACD/RKA were prepared as two dilution series, starting at 22 nM and 100 nM, then diluted three- and two-fold, respectively, down to final concentrations of 0.03 nM and 0.39 nM in HBS-EP buffer (BIAcore, Inc., consisting of the following: 10 mM HEPES buffer, pH7.4, 150 mM NaCl, 3 mM EDTA, and 0.005% P20). Each concentration of IgG was then injected over both the CD22 and reference cell surfaces, which are connected in series. Between injections, surfaces were regenerated with a 1-minute injection of 3M MgCl2.

[3] = target: T1, human CD22 (hCD22) expressed on the …; test: binding to BHK-hCD22 cells
Method: The ability of chHB227 and its humanized variants to bind hCD22 was assessed in a cell based CD22 binding assay utilizing BHK cells expressing cell-surface human CD22 as a capture agent. Untransfected BHK cells not expressing hCD22 served as a control for non-specific binding. The BHK and BHK-CD22 lines were grown in DMEM supplemented with 10% Fetal Clone I and antibiotics. G418/Geneticin (0.75 mg/ml) was also added to the growth medium for BHK-CD22 only. The standard NCI protocol was used for the binding assay.

B1: antibody of chimeric HB22.7 heavy chain (chH) with HB227RKA light chain variable region (antibody, V domains shown)
VH: QVQLKESGPGLVAPSQSLSITCTVSGFSLSDYGVNWVRQIPGKGLEWLGIIWGDGRTDYNSALKSRLNISKDNSKSQVFLKMNSLKADDTARYYCARAPGNRAMEYWGQGTSVTVSS
VL: DIVMTQSPSSLSASVGDRVTITCKASQSVTNDVAWYQQKPGKAPKLLIYYASNRYTGVPSRFSGSGSGTDFTLTISSLQPEDFATYYCQQDYRSPWTFGGGTKVEIK
notes: Human IgG1/kappa, COS-7 supernatant; VL entry may include the DPK018 leader; also called chH+RKA
B1: binds [1].

B2: humanized anti-hCD22 antibody RHOv2ACD/RKA (antibody, V domains shown)
VH: QVQLEESGGGVVRPGRSLRLSCAASGFTFSDYGVNWIRQAPGKGLEWVTIIWGDGRTDYNSALKSRFTVSRNNSNNTLSLQMNSLTTEDTAVYYCVRAPGNRAMEYWGQGVLVTVSS
VL: B1 VL
modifications: Labelled with Alexa Fluor 488 or 647 in some flow cytometry assays; unlabelled IgG in the BIAcore runs.
notes: VH keeps only the D30S back mutation; Labelled with Alexa Fluor 488 or 647 in some flow cytometry assays; also called HB227RHOv2ACD + HB227RKA; RHOvACD/RKA
For B2, the Kd [2] was 22 nM, the koff [2] was 0.00069 s⁻¹ and the kon [2] was 32000 M⁻¹ s⁻¹.

B3: humanized antibody HB227RHOv2ABCD + HB227RKA (antibody, V domains shown)
VH: B2 VH with S30D
VL: B1 VL
notes: VH without back mutations; Human IgG1/kappa, COS-7 supernatant; also called RHOv2ABCD+RKA
B3: binds [3].

B4: humanized antibody HB227RHF + HB227RKC (antibody, V domains shown)
VH: QVQLQESGPALVKPTQTLTLTCTVSGFSLSDYGVNWIRQPPGKALEWLGIIWGDGRTDYNSALKSRLSISKDNSKNQVVLRMTNVDPVDTATYFCARAPGNRAMEYWGQGTVVTVSS
VL: DIVMTQSPSSLSASVGDRVTITCKASQSVTNDVAWYQQKPGKAPKLLIYYASNRYTGVPDRFSGSGYGTDFTLTISSLQPEDFATYFCQQDYRSPWTFGGGTKVEIKR
notes: Human IgG1/kappa, COS-7 supernatant; also called RHF+RKC; humanized (RHF+RKC) antibody
B4: binds [1].

Reference: patent US20070258981A1 (published 2007)
